Laboratory results published in article PMC9278865 (Science Advances, 2022).

Molecular target: SARS-CoV-2 RBDwt (residues 319 to 541) (SARS-CoV-2, UniProt P0DTC2 319-541)
Assay: SPR

B1: ACE2_(740) LFMYQY2HA in the IgG3 backbone with a truncated hinge (M80) (Fc fusion)
chain: QSTIEEQAKTFLDKFNHEAEDLFYQSSLASWNYNTNITEENVQNMNNAGDKWSAFLKEQSTFAQYYPLQEIQNLTVKLQLQALQQNGSSVLSEDKSKRLNTILNTMSTIYSTGKVCNPDNPQECLLLEPGLNEIMANSLDYNERLWAWESWRSEVGKQLRPLYEEYVVLKNEMARANHYEDYGDYWRGDYEVNGVDGYDYSRGQLIEDVEHTFEEIKPLYEHLHAYVRAKLMNAYPSYISPIGCLPAHLLGDMWGRFWTNLYSLTVPFGQKPNIDVTDAMVDQAWDAQRIFKEAEKFFVSVGLPNMTYGFWENSMLTDPGNVQKAVCHPTAWDLGKGDFRILMCTKVTMDDFLTAHAEMGAIQYDMAYAAQPFLLRNGANEGFHEAVGEIMSLSAATPKHLKSIGLLSPDFQEDNETEINFLLKQALTIVGTLPFTYMLEKWRWMVFKGEIPKDQWMKKWWEMKREIVGVVEPVPHDETYCDPASLFHVSNDYSFIRYYTRTLYQFQFQEALCQAAKHEGPLHKCDISNSTEAGQKLFNMLRLGKSEPWTLALENVVGAKNMNVRPLLNYFEPLFTWLKDQNKNSFVGWSTDWSPYADQSIKVRISLKSALGDKAYEWNDNEMYLFRSSVAYAMRQYFLKVKNQMILFGEEDVRVANLKPRISFNFFVTAPKNVSDIIPRTEVEKAIRMSRSRINDAFRLNDNSLEFLGIQPTLGPPNQPPVS
B1: binds.
